Legend:
Format in all cases: biochemical
[1] = Ketose 3-epimerase activity of crude enzyme (D-allulose to D-fructose, HPLC); conditions: crude recombinant enzyme
Experimental: The activity of an enzyme ketose 3-epimerase before purification was obtained by measuring the preparation amount of D-fructose with D-allulose as a substrate. More specifically, an enzymatic reaction solution composed of a 50 mM tris-HCl buffer (pH 7.5), 0.1 M D-allulose, an enzyme solution, and 2 mM magnesium chloride is reacted at 70° C. for 10 minutes. The reaction mixture is boiled for 2 minutes to terminate the reaction and the solution composition after the reaction is measured by HPLC. One unit of enzyme activity is defined as an enzyme amount that epimerizes D-allulose to prepare 1 μmol of D-fructose per minute under the above-described conditions. An enzyme unit for epimerization of D-fructose into D-allulose, which is a reverse reaction, is also measured under similar conditions and defined similarly.
For the measurement of the activity of a ketose 3-epimerase as a crude enzyme and a purified enzyme, an enzyme reaction was made by performing an experiment similar to Experiment 4. An enzyme reaction was made for 10 minutes under various conditions and an enzyme amount preparing 1 μmol of D-fructose from D-allulose per minute was defined as 1 unit. After the reaction, the reaction mixture was put in a boiling liquid for 3 minutes to terminate the reaction. After deionization treatment, the D-fructose thus prepared was measured by HPLC analysis. […]

[2] = Optimum reaction temperature / relative activity at various reaction temperatures; conditions: crude recombinant enzyme
Experimental: For the measurement of the activity of a ketose 3-epimerase as a crude enzyme and a purified enzyme, an enzyme reaction was made by performing an experiment similar to Experiment 4. An enzyme reaction was made for 10 minutes under various conditions and an enzyme amount preparing 1 μmol of D-fructose from D-allulose per minute was defined as 1 unit. After the reaction, the reaction mixture was put in a boiling liquid for 3 minutes to terminate the reaction. After deionization treatment, the D-fructose thus prepared was measured by HPLC analysis.
Reaction conditions are shown in Table 1 under which the reaction was made at various temperatures within from 50 to 80° C. to find an optimum temperature.

[3] = Thermal stability: residual activity after incubation at 60° C. for one hour; conditions: crude recombinant enzyme; activity at 60° C. (10 min reaction) = 100; unit not given
Experimental: Thermal stability of the enzyme was investigated by measuring the activity of the enzyme after incubation at 60° C. for one hour and finding its relative activity supposing that the activity at 60° C. under the reaction conditions (10 minutes) used for determining the optimum temperature in the above 2 shown in Table 2 was 100. As heat treatment conditions, the crude enzyme solution, a buffer (50 mM tris-HCl, pH 7.5), and 2 mM MgCl2 were used to give a total amount of 200 p1 and after retaining at 60° C. for one hour, the reaction mixture was cooled for 10 minutes in ice water. The residual enzyme activity was then measured by the conventional method.
The activity of each of the present enzyme (crude recombinant enzyme) and the crude enzyme of the control enzyme after incubation at 60° C. for 1 hour was measured and a relative activity of it was determined supposing that the activity at 60° C. under the reaction conditions (10 minutes) for determining the optimum temperature in the above 2 shown in Table 2 is 100. The relative activity was used as a heat resistance index of the enzyme. As heat treatment conditions, the crude enzyme solution, a buffer (50 mM tris-HCl, pH 7.5), and 2 mM MgCl2 were used to give a total amount of 200 p1 and after retaining at 60° C. for one hour, the reaction mixture was cooled for 10 minutes in ice water. The residual enzyme activity was measured by the conventional method.

[4] = Ketose 3-epimerase activity ratio (T70/T50) at reaction temperature of 70° C. to 50° C.; conditions: crude recombinant enzyme; ratio of activity at 70° C. to activity at 50° C., 10 min reaction
Experimental: An enzyme having higher heat resistance than an amino acid substitution-free wild type enzyme can be obtained by introducing mutation into the gene of the ketose 3-epimerase of the present invention and substituting the corresponding amino acid residue with another amino acid residue by a site-directed mutagenesis operation to prepare various amino acid-substituted mutants. The heat resistance is evaluated by two indices, that is, a ketose 3-epimerase activity ratio (T70/T50) at the reaction temperatures of 70° C. to 50° C. and a residual activity after incubation at 60° C. for one hour.
Heat resistance of the present enzyme (crude recombinant enzyme) and the crude enzyme of the control enzyme was investigated by measuring an activity at 70° C. and an activity at 50° C. under the reaction conditions (10 minutes) used for determining the optimum temperature in the above 2 shown in Table 2 and finding their ratio (T70/T50).

[5] = activity at optimum temperature = 100

B1: Mutant enzyme Sequence information 3: mutant having Sequence 3 (SEQ ID NO: 3), 78.5% amino acid sequence identity to Sequence 1 (protein)
chain: MNIGCHGLVWTGTFDADGIRLAVEKTKQAGFDLIEFPLMDPFSFDVAAAQAALAEHGLAVSASLGLSDETDITSSDPAVVAAGEALLLRAVDVLAELGGTHFCGVIYSAMKKYMDPVTPEGLASSRRTIARVADHAAERGVSVSLEVVNRYETNVLNTARQALAYLGEVDRPNLGIHLDTYHMNIEESDMFAPVLDAAPALRYVHIGESHRGYLGTGTVDFDTFFKALGRIGYDGPIVFESFSSAVVAPDLSRMLGIWRNLWTDNDELGAHANAYIRDKLVAVDSIRLH
In the case of B1, the “Total activity per 100 mL of culture liquid (optimum reaction temperature)” value [1] is reported as 1201 U, the “Optimum enzyme reaction temperature” value ([2]; 10 min, 2 mM magnesium chloride, pH 7.5) is reported as 70° ° C and the “Relative activity at 60° C. (%)” value [2, 5] is reported as 75.8%. The “Relative activity at 70° C. (%)” value [2, 5] was 100.0%, the “Relative activity at 80° C. (%)” value [2, 5] was 31.2% and the “Residual activity after incubation at 60° C. for 1 hour” value [3] was 38.2. For the same molecule, the T70/T50 [4] was 2.11.

Source: US20210395718A1, “NOVEL KETOSE 3-EPIMERASE” (NATIONAL UNIVERSITY CORPORATION KAGAWA UNIVERSITY, priority 2018, published 2021)
